Consider one protein from paper PMC4075990.

Substrate in data set [1]: N#Cc1cn([C@@H]2O[C@H](CO)[C@@H](O)[C@H]2O)c2ncnc(N)c12
The data set is described as follows: purified protein. Particulars: 0.05 M potassium phosphate pH 6.5, 10 nM enzyme, 0.1-2.5 mM substrate.

Substrate in data set [2]: N#Cc1cccnc1
As to the kind of experiment: purified protein. Particulars: 0.05 M potassium phosphate pH 6.5, 10 nM enzyme, 0.05-0.75 M substrate.

B1: ToyJKL (toyocamycin nitrile hydratase, TNHase) (Streptomyces rimosus) (protein)
chain 1: MSTEHVSLPIAARVRRLEERVIAAGLVTDEQLDTILEHNLSRATPFNGARLVARAWTSPDFRDLLLGEPAAALREMGLDGLLADDEHLRVVANTPTVHNVVVCTLCSCYPVLLLGPSPSWYKSDAYRARVVREPRAVLAEFGTVLPAEVDVRVWDASAEARYMVLPRRPAGTEGLDEEGLAARVTRAGLIGTAPV
chain 2: MGERRFSVGDPVRVRPADPPHHTRVPRYVRGHLGHVVTVQPPCPLPDDVARRRDPFRVLPVYTVRFAARDLWGSGTHLVLIDLWECYLEPAAETARGLGGETS
chain 3: MARLNDIGGTFGYGSIPMDGAEPPHPWRHDWEARVFAVLIGLAMAGVWTASELRDAEERVPPNDYLAASYYERVLMGMELLLDEKGIPSRG
B1: in the data set “purified protein [1]”, the Km is recorded as 2.8 × 10^–2 ± 1 × 10^–3 mM, the kcat is 159 ± 2 s⁻¹ and the kcat/Km came out at 5.7e+06 M⁻¹ s⁻¹. In addition, in “purified protein [2]”, the Km is recorded as 99 ± 2 mM, the catalytic constant (kcat) is 79 ± 5 s⁻¹ and the kcat/Km was 800 M⁻¹ s⁻¹.

A word on the Km: it is the concentration of substrate that gives half-maximal velocity. As a reminder, the kcat is the maximal rate divided by the concentration of active sites. By kcat/Km is commonly meant the second-order rate constant that governs catalysis at low substrate concentration.
